Laboratory results published in patent publication US20160280792A1 (Kyowa Kirin, published 2016).

What was measured:
[1] = biological target: T1, IL-3Rα/GM-CSFRα chimeric protein, region 4 (97-…-104) of IL-3Rα replaced by GM-CSFRα sequence, on HEK293T … (human, UniProt P26951 19-378); assay: flow cytometry, labelled antibody at 1 µg/ml, HEK293T cells expressing the construct
T1 construct: also called Region 4 (A-B)
T1 chain: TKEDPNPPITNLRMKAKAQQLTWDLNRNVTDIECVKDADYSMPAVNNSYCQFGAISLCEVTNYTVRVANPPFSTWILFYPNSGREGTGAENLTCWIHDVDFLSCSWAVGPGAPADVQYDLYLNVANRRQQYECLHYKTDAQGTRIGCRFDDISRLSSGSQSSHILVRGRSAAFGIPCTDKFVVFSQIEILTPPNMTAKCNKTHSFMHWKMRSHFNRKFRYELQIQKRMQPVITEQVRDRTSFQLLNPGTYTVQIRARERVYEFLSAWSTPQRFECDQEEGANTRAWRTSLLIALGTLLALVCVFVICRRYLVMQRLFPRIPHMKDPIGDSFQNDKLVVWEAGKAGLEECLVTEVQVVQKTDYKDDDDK

[2] = biological target: T2, soluble form of human IL-3Rα protein (extracellular region with C-terminal FLAG tag) (human, UniProt P26951 19-305); assay: SPR (Biacore 2000): antibody captured on anti-human antibody CM5 chip, soluble IL-3Rα as analyte, 1:1 Langmuir fit
T2 construct: Made in CHOras1 cells, purified on anti-FLAG gel; also called soluble form of IL-3Rα protein; soluble form of human IL-3Rα extracellular region
T2 sequence: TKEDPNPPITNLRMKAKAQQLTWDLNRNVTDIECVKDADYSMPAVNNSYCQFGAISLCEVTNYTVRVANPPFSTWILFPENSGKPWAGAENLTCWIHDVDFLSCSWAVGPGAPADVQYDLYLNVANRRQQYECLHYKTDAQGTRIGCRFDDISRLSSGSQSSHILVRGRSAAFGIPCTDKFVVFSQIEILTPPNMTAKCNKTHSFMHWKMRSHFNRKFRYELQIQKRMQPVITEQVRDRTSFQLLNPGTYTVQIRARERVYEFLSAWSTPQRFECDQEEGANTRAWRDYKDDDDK
Experimental: Specifically, CM5 (research grade) was used for a sensor tip (each GE). Firstly, the CM5 tip was activated by applying an equivalent mixture of 400 mM EDC (N-ethyl-N′-(3-dimethylaminopropyl)carbodiimidehydrochloride) and 100 mM NHS (N-hydroxysuccinimide) to the CM5 tip. Next, an antibody to the human antibody attached to the Human Antibody Capture Kit (GE) (hereinafter, referred to as anti-human antibody antibody) was diluted with the solution attached to the kit and applied thereto, thereby immobilizing the required amount of the anti-human antibody antibody to the CM5 tip. Regarding the mouse antibody to be used as a control, an antibody to the mouse antibody attached to the Mouse Antibody Capture Kit (GE) (hereinafter, referred to as anti-mouse antibody antibody) was diluted with the solution attached to the kit and applied thereto, thereby immobilizing a necessary amount thereof to the CM5 tip. Next, the surface of the activated tip was blocked and inactivated by applying 1 M of ethanolamine dihydrochloride thereto. By the above steps until this, preparation of a CM5 sensor tip which can measure the dissociation constant KD was completed.
Next, each of anti-IL-3Rα antibodies, was diluted to give a concentration of 5 μg/ml with HBS-FP buffer (GE) one kind per one flow cell and applied, thereby allowing it to bind to the immobilized anti-human antibody antibody or anti-mouse antibody antibody. Next, the soluble form of IL-3Rα protein was applied thereto. In order to dissociate the bound anti-IL-3Rα antibody and soluble form of IL-3Rα protein, 3 M MgCl₂ attached to Human Antibody Capture Kit or pH 1.7 of Glycine-HCl attached to Mouse Antibody Capture Kit was applied in the amount attached to the kit. The steps until this were regarded as one step. By repeating the same steps using two or more concentrations of the soluble form of IL-3Rα protein, data for calculating association and dissociation constants (sensorgram) were obtained.
In the analysis, Biaevaluation software (GE) was used and Biaevaluation Software Handbook was referred. Specifically, by carrying out simultaneous analysis of kinetics analysis, employing basically the 1:1 Langmuir binding reaction model and fitting, association rate constant (Ka) and dissociation rate constant (Kd) were calculated, and the value of dissociation constant KD was calculated by the calculation of Kd/Ka.

- binding result [1]: no binding (tested: 1 µg/ml)
- Kd [2]: 3.24 nM
B1: Old19 anti-human IL-3Rα human antibody (antibody, human IgG1, V domains shown)
VH: QVQLVQSGAEVKKPGSSVKVSCKASGGTFSSYAISWVRQAPGQGLEWVGGIIPIFGTANYAQKFQGRVTITADESTSTAYMELSSLRSEDTAVYYCARGHKYGPYYFDYWGQGTLVTVSS
VL: DIQMTQSPSSLSASVGDRVTITCRASQGISSWLAWYQQKPEKAPKSLIYAASSLQSGVPSRFSGSGSGTDFTLTISSLQPEDFATYYCQQYNSYPRTFGQGTKVEIK
notes: Human antibody; recombinant form in N5KG1-Val Lark vector (human IgG1, kappa)
